Reference: PMC7794309

Settings: glycan lost

Row | Substance | other: support of viral entry, other: percent increase over WT | other: viral replication
1 | ACE2: N53Q | no change | –
2 | ACE2: N690Q | no change | –
3 | ACE2: N432Q | no change | –
4 | ACE2: N90Q | 60% | increases
5 | ACE2: N546Q | 68% | no change
6 | ACE2: N103Q | no change | –
7 | ACE2: N322Q | no change | –
